The values that follow come from patent US6121423, “Reshaped human antibody to human interleukin-6” (Chugai Seiyaku Kabushiki Kaisha, dated 2000).

The target in this assay is recombinant human IL-6 (human, UniProt P05231, biotinylated in the binding-inhibition assay (sites not given); unlabelled in the antigen-binding assay). Briefly: ELISA, IL-6 captured by MH166. The protocol: An ELISA plate for antigen-binding assay was prepared as follows. A 96-well plate was coated with mouse monoclonal antibody MH166 recognizing a different epitope of human IL-6 from that recognized by SK2 (Matsuda, T. et al., Eur. J. Immunol. 18, 951–956, 1988), and after blocking, recombinant human IL-6 was added thereto. A sample of the chimeric SK2 antibody was sequentially diluted, added to each well, and then an alkaline phosphatase-conjugated goat anti-human IgG antibody (Sigma) was added thereto. After incubation and washing, substrate was added, and absorbance at 405 nm was measured.
Background: ELISA stands for enzyme-linked immunosorbent assay.

B1: chimeric SK2 antibody NTS (antibody, V domains shown)
VH: QVTLKESGPGILQPSQTLSLTCSFSGFSLSTSGMTVGWIRQPSGKGLEWLAHIWWNDDKYYNPALKGRLTISKDTSNNQVFLKIASVVTADTATYYCARMEDYDEAMDYWGQGTSVTVSS
VL: DIQMTQSPASLSVSVGETVTITCRASENIYSNLAWYQQKQGKSPQLLVYAATYLADGVPSRFSGSGSGTQYSLKINSLQSEDFGSYYCQHFWGTPPFGSGTKLEIK
Consider B1, for which the binding result was “binds”.
